US20220033501A1 (SHANGHAI PHARMAEXPLORER, published 2022)

T1: human TIM-3 on CHOK1 stable cell line (CHOK1-hTIM-3) (human, UniProt Q8TDQ0 22-301)
T1 sequence: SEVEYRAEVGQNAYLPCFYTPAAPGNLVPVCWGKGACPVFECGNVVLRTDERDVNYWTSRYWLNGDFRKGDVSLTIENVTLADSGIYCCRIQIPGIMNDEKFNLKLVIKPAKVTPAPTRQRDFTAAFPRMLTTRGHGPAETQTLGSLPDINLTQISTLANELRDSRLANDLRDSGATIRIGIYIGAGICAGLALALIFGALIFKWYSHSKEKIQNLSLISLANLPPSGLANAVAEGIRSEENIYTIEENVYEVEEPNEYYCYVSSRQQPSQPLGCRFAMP

T2: monkey TIM-3 on CHOK1 stable cell line (CHOK1-cTIM-3) (monkey)
T2 chain: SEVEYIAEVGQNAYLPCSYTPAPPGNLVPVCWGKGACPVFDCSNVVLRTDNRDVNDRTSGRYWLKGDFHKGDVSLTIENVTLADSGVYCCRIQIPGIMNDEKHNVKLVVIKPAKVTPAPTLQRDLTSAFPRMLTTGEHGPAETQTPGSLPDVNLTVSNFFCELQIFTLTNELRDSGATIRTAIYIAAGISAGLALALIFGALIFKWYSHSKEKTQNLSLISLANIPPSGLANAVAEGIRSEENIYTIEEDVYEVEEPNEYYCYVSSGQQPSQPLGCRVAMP

T3: murine TIM-3 extracellular domain protein with hFc tag (mTIM-3-hFc) (mouse, UniProt Q8VIM0 29-191)
T3 construct: also called mouse TIM-3 extracellular domain protein; not shown: human IgG Fc fragment (hFc) of the pCpC vector
T3 chain: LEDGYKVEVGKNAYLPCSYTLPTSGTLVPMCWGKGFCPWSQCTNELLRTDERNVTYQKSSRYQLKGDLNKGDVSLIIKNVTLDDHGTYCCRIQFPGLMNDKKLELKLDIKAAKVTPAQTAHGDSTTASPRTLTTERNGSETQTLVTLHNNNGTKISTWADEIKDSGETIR

T4: monkey TIM-3 extracellular domain protein with hFc tag (cTIM-3-hFc) (monkey)
T4 construct: not shown: human IgG Fc fragment (hFc) of the pCpC vector
T4 chain: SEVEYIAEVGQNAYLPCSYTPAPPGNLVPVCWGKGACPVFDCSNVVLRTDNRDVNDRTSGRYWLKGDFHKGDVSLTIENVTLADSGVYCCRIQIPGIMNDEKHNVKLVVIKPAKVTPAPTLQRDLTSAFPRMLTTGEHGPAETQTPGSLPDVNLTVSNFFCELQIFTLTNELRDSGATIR

T5: human TIM-3 protein with hFc tag (hTIM-3-hFc protein) (human, UniProt Q8TDQ0 22-200)
T5 construct: also called immunogen 1; human TIM-3 extracellular domain protein; not shown: human IgG Fc fragment (hFc) of the pCpC vector
T5 sequence: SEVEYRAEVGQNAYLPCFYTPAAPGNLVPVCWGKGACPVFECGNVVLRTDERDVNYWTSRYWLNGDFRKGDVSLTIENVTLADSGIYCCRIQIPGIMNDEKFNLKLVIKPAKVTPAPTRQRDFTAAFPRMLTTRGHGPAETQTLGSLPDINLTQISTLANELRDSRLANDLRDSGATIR

T6: murine TIM-3 protein with hFc tag (mTIM-3-hFc protein) (mouse; human, UniProt Q8VIM0 29-191)
T6 construct: Made in HEK293 cells; also called mouse TIM-3 extracellular domain protein; not shown: human IgG Fc fragment (hFc) of the pCpC vector
T6 chain: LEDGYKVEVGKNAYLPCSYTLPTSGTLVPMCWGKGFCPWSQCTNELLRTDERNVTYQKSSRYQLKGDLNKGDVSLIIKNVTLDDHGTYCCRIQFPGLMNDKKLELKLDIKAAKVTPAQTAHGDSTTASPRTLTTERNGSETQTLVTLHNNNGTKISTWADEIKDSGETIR


Assays:
[1] = molecular target: T1, human TIM-3 on CHOK1 stable cell line …; experiment: FACS, CHOK1-hTIM-3 cells, 40 nM antibody
[2] = molecular target: T2, monkey TIM-3 on CHOK1 stable cell line …; experiment: FACS, CHOK1-cTIM-3 cells, 0.013 nM antibody
[3] = molecular target: T3, murine TIM-3 extracellular domain …; experiment: ELISA, coated mouse TIM-3 ECD protein, 6.6667 nM antibody
[4] = molecular target: T3, murine TIM-3 extracellular domain …; experiment: ELISA, coated mouse TIM-3 ECD protein, 66.667 nM antibody
[5] = molecular target: T4, monkey TIM-3 extracellular domain …; experiment: ELISA, coated monkey TIM-3 ECD protein, 0.0667 nM antibody
[6] = molecular target: T4, monkey TIM-3 extracellular domain …; experiment: ELISA, coated monkey TIM-3 ECD protein, 66.667 nM antibody
[7] = molecular target: T5, human TIM-3 protein with hFc tag …; experiment: ELISA, coated hTIM-3-hFc; antibody 6.6667 nM
From the text: (§1) The amino acid sequence 22-200 of the extracellular domain of the human TIM-3 protein described in the step of Example 1 (as shown in SEQ ID NO. 71 in the sequence listing) was cloned into a pCpC vector having a human IgG Fc fragment (hFc), and transfected into HEK293 cells. The cell culture medium was collected, and purified to obtain the human TIM-3 protein with hFc tag (herein referred to as hTIM-3-hFc protein). The amino acid sequence 22-201 of the extracellular domain of the monkey TIM-3 protein (as shown in SEQ ID NO. 72 in the sequence listing) was cloned into a pCpC vector having a human IgG Fc fragment (hFc), and transfected into HEK293 cells. The cell culture medium was collected, and purified to obtain the monkey TIM-3 protein with hFc tag (herein referred to as cTIM-3-hFc protein). […] The cell culture medium was collected, and purified to obtain the murine TIM-3 protein with hFc tag (herein referred to as mTIM-3-hFc protein). Purified human, monkey, and mouse TIM-3 extracellular domain proteins (hTIM-3-hFc, cTIM-3-hFc, and mTIM-3-hFc) were diluted with PBS to a final concentration of 1.0 μg/ml and then added to a 96-well ELISA plate with 100 μl per well. The plate was sealed with plastic film and incubated overnight at 4° C. The plate was washed 4 times with the plate washing solution (PBS+0.01% Tween20) on the next day, and added with the blocking solution (PBS+0.01% Tween20+1% BSA) and sealed at room temperature for 1-2 hours. The blocking solution was poured out. 50-100 μl of the antibody sample to be tested was added to each well. The plate was incubated at 37° C. for 1-2 hours, and washed 2-3 times with plate washing solution (PBS+0. 01% Tween20). HRP (horseradish peroxidase) labeled secondary antibody was added. The plate was incubated at 37° C. for 1-2 hours, and washed 2-3 times with plate washing solution (PBS+0. 01% Tween20). […] of TMB substrate was added to each well. After incubated at room temperature for 15-30 minutes, the plate was added with […] stop solution (1.0N HCl) to each well. An ELISA plate reader (TiterMax 384plus, Molecular Device) was used to read the A450 nm value.

[8] = molecular target: T6, murine TIM-3 protein with hFc tag …; experiment: ELISA, coated mTIM-3-hFc; antibody 6.6667 nM
From the text: as §1

| Binder | Mean fluorescence intensity [1] | Mean fluorescence intensity [2] | OD450 [3] | OD450 [4] | OD450 [5] | OD450 [6] | OD450 [7] | OD450 [8] |
| --- | --- | --- | --- | --- | --- | --- | --- | --- |
| 57F4E5 fully human TIM-3 antibody (human IgG4, kappa) (antibody, V domains shown) VH: EVQLVESGGGLVQPGGSLRLSCAASGFTFSSYWMSWVRQAPGKGLEWVANIKQDGSEKYYVDSVKGRFTISRDSAKNSLYLQMNSLRAEDTAMYFCARDSNFFDYWGQGTLVTVSS VL: ETVMTQSPATLSVSPGERATLSCRASQSVSSNLAWYQRKPGQAPRLLIYFSSTRATGIPARFSGSGSGTEFTLTISSLQSEDFAVYYCQQYNNWPLTFGGGTKVEIK | 147 | 11.4 | 0.54 | 1.55 | 1.34 | 3.42 |  |  |
| 134H3G6 fully human TIM-3 antibody (human IgG4, kappa) (antibody, V domains shown) VH: EVQLVESGGGLVQPGGSLRLSCAASGFTFSNSWMTWVRQAPGKGLEWVANIKQAGTEKYYVDSVKGRFTISRDNAKNSLYLQMNSLRAEDTAVYYCNSGSNYFDYWGQGTLVTVSS VL: EIVMTQSPATLSVSPGERATLSCRARQNFYSNLAWYQQKPGQAPRLLIYGASTRATGIPARFSGSGSGTEFTLTISSLQSEDFAVYYCQQYNNWPLTFGGGTKVEIK | 218 | 16.8 | 0.36 | 0.94 | 1.3 | 3.11 |  |  |
| 215A8F2 fully human TIM-3 antibody (human IgG4, kappa) (antibody, V domains shown) VH: QVQLQQWGAGLLKPSETLSLTCTVYGGSFSGYYWNWIRQPPGKGLEWLGEINHSGSTNYNPSLKRRVTISVDTSKNQFSLKLSSVTAADTAVYYCARVYYYGPFDFWGQGTLVTVSS VL: not shown | 283 | 11.5 | 0.38 | 1.08 | 1.37 | 3.24 |  |  |
| 7A4F10 fully human TIM-3 antibody (human IgG4, kappa) (antibody, V domains shown) VH: EVQLLESGGGLVQPGGSLRLSCAASGFTFRTHLISWVRQAPGKGLEWVAAITGSGGSTYYADSVKGRFIISRDNSKNTLFLQMNSLRAEDTAVYYCAKDGGSGSYDDFWGQGTLVTVSS VL: ETVLTQSPVTLSLSPGERATLSCRASQSVGSYLAWYQQKPGQAPRLLIYDASNRATGIPARFSGSGSGTDFTLTISSLEPEDFAVYYCQQRSNWPPTFGQGTKVEIK | 313 | 7.1 | 0.36 | 0.99 | 0.68 | 3.26 |  |  |
| 18D2H2 (TIM-3 antibody purified from hybridoma, chimeric antibody of Example 2) (antibody, V domains shown, From hybridoma of Harbour H2L2 transgenic mice: human variable regions, rat constant regions) VH: EVQLVESGGDLVQPGGSLRLSCAASGFTFSTYWMTWVRQAPGRGLEWVANIKQDGSAKYYVDSVKGRFTLSRDDAKNSLYLQMNSLRAEDTAVYYCARGSNWFDYWGQGTLVTVSS VL: ETVMTQSPATLSVSPGERATLSCRANQNVYSNLAWYQQKPGQAPRLLIYDASTRATGFPARFSGSGSGTEFTLTISSLQSEDFAVYYCQQYNNWPLTFGGGTKVEIK |  |  |  |  |  |  | 2.86 | 0.69 |
| 34B6D8 (TIM-3 antibody purified from hybridoma, chimeric antibody of Example 2) (antibody, V domains shown, From hybridoma of Harbour H2L2 transgenic mice: human variable regions, rat constant regions) VH: EVQLVESGGGLVQPGGSLRLSCAASGFTFSTYWMTWVRQAPGKRLEWVANIKQGGGDKYYVDSVKGRFTISTDNAKNSLYLQMNSLRAEDTAVYYCARGSNWFDPWGQGTLVTVSS VL: EIVMTQSPATLSMSPGERATLSCRASQSVYDNLAWYQQKPGQAPRLLIYGASTRATGIPARFSGSGSGTEFTLTISSLQSEDFALYYCQQYTHWPITFGQGTRLEIK |  |  |  |  |  |  | 3.4 | 0.74 |
| 39E5H1 (TIM-3 antibody purified from hybridoma, chimeric antibody of Example 2) (antibody, V domains shown, From hybridoma of Harbour H2L2 transgenic mice: human variable regions, rat constant regions) VH: EVQLVESGGGLVQPGGSLRLSCAASGFTFSSYWMSWVRQAPGKGLEWVANIKRGGSERYYVDSVKGRFTISGDNAKNSVYLQMNSLRAEDTAVYYCARGSNWFDPWGQGTLVTVSS VL: ETVMTQSPAILSVSPGERATLSCRASQSVYSNLAWYQQKLGQAPRLLIYDASTRATGIPARFSGSGSGTEFTLTISSLQSEDFAVYYCQQYNNWPITFGQGTRLEIK |  |  |  |  |  |  | 3.34 | 0.68 |
| 57F4E5 (TIM-3 antibody purified from hybridoma, chimeric antibody of Example 2) (antibody, V domains shown, From hybridoma of Harbour H2L2 transgenic mice: human variable regions, rat constant regions) VH: EVQLVESGGGLVQPGGSLRLSCAASGFTFSSYWMSWVRQAPGKGLEWVANIKQDGSEKYYVDSVKGRFTISRDSAKNSLYLQMNSLRAEDTAMYFCARDSNFFDYWGQGTLVTVSS VL: ETVMTQSPATLSVSPGERATLSCRASQSVSSNLAWYQRKPGQAPRLLIYFSSTRATGIPARFSGSGSGTEFTLTISSLQSEDFAVYYCQQYNNWPLTFGGGTKVEIK |  |  |  |  |  |  | 3.29 | 0.69 |
| 134H3G6 (TIM-3 antibody purified from hybridoma, chimeric antibody of Example 2) (antibody, V domains shown, From hybridoma of Harbour H2L2 transgenic mice: human variable regions, rat constant regions) VH: EVQLVESGGGLVQPGGSLRLSCAASGFTFSNSWMTWVRQAPGKGLEWVANIKQAGTEKYYVDSVKGRFTISRDNAKNSLYLQMNSLRAEDTAVYYCNSGSNYFDYWGQGTLVTVSS VL: EIVMTQSPATLSVSPGERATLSCRARQNFYSNLAWYQQKPGQAPRLLIYGASTRATGIPARFSGSGSGTEFTLTISSLQSEDFAVYYCQQYNNWPLTFGGGTKVEIK |  |  |  |  |  |  | 2.57 | 0.67 |
| 215A8F2 (TIM-3 antibody purified from hybridoma, chimeric antibody of Example 2) (antibody, V domains shown, From hybridoma of Harbour H2L2 transgenic mice: human variable regions, rat constant regions) VH: QVQLQQWGAGLLKPSETLSLTCTVYGGSFSGYYWNWIRQPPGKGLEWLGEINHSGSTNYNPSLKRRVTISVDTSKNQFSLKLSSVTAADTAVYYCARVYYYGPFDFWGQGTLVTVSS VL: not shown |  |  |  |  |  |  | 3.15 | 0.68 |
| 7A4F10 (TIM-3 antibody purified from hybridoma, chimeric antibody of Example 2) (antibody, V domains shown, From hybridoma of Harbour H2L2 transgenic mice: human variable regions, rat constant regions) VH: EVQLLESGGGLVQPGGSLRLSCAASGFTFRTHLISWVRQAPGKGLEWVAAITGSGGSTYYADSVKGRFIISRDNSKNTLFLQMNSLRAEDTAVYYCAKDGGSGSYDDFWGQGTLVTVSS VL: ETVLTQSPVTLSLSPGERATLSCRASQSVGSYLAWYQQKPGQAPRLLIYDASNRATGIPARFSGSGSGTDFTLTISSLEPEDFAVYYCQQRSNWPPTFGQGTKVEIK |  |  |  |  |  |  | 2.92 | 0.67 |
